# In IntAct's records for PubMed 21252223:
# B1: Swi5-dependent recombination DNA repair protein 1 homolog (Homo sapiens), Q86XK3 (parent)
# chain: MAEGEKNQDFTFKMESPSDSAVVLPSTPQASANPSSPYTNSSRKQPMSATLRERLRKTRFSFNSSYNVVKRLKVESEENDQTFSEKPASSTEENCLEFQESFKHIDSEFEENTNLKNTLKNLNVCESQSLDSGSCSALQNEFVSEKLPKQRLNAEKAKLVKQVQEKEDLLRRLKLVKMYRSKNDLSQLQLLIKKWRSCSQLLLYELQSAVSEENKKLSLTQLIDHYGLDDKLLHYNRSEEEFIDV
# partner: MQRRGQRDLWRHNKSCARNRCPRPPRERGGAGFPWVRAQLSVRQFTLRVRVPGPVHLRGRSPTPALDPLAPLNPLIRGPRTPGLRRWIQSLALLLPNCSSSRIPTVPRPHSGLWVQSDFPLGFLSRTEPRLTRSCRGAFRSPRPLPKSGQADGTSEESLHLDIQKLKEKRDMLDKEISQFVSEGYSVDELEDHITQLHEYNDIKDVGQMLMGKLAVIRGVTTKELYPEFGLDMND
# Variants of: B1
# Conditions: with swi5_human SWI5, Q1ZZU3
row,effect of a mutation on the interaction,Variant
1,with no effect,MAEGEKNQDFTFKMESPSDSAVVLPSTPQASANPSSPYTNSSRKQPMSATLRERLRKTRFSFNSSYNVVKRLKVESEENDQTFSEKPASSTEENCLEFQESFKHIDSEFEENTNLKNTLKNLNVCESQSLDSGSCSALQNEFVSEKLPKQRLNAEKAKLVKQVQEKEDLLRRPKLVKMYRSKNDLSQLQLLIKKWRSCSQLLLYELQSAVSEENKKLSLTQLIDHYGLDDKLLHYNRSEEEFIDV [L173P]
